This assay addresses Flag-tagged PDI-WT (UniProt P07237). The assay is described as follows: co-IP; Flag-M2 affinity resin on COS-7 lysates (50 mM TrisHCl, 150 mM NaCl); PDI-Flag co-expressed with one sGC subunit or one α construct; Western blot, densitometry of bound over input. In general terms: In western blotting, separated proteins are transferred to a membrane and probed.

Flag-tagged PDI-WT, sequence (P07237 18-508): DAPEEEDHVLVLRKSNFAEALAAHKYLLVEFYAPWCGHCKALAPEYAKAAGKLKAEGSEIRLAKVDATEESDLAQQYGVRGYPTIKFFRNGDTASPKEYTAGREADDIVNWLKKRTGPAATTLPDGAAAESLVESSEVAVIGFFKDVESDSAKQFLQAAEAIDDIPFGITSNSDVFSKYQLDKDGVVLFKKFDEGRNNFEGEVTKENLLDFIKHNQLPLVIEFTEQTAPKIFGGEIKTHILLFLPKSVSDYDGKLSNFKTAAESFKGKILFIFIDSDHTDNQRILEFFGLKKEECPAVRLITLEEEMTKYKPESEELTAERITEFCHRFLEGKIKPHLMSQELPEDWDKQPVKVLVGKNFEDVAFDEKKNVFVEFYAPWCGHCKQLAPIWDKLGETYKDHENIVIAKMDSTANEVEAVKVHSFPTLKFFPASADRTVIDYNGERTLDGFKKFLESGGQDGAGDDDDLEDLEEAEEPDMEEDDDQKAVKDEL

In turn, “sGC β WT, expressed in COS-7 cells (from UniProt Q02153 1-619) (enzyme)” came in with a sGC bound over input (densitometry) of 0.74.
The substance “sGC α WT, expressed in COS-7 cells (from UniProt Q02108 1-690) (enzyme)” returned a bound vs. input (densitometry) of 1.01 and a sGC bound over input (densitometry) of 1.08.

(Values after publication PMC4664405.)
